# Data from article PMC4434323.
# Target: T1, K11D2.4 (K11D2.4) (Caenorhabditis elegans) (UniProt G5EBU1)
# T1 sequence: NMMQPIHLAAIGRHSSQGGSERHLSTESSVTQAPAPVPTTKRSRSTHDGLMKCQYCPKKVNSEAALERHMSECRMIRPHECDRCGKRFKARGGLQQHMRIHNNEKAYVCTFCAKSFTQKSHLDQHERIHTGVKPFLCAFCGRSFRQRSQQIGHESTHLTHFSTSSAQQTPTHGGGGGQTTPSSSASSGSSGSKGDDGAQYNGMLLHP
row,Sequence,binding signal (PBM E-score (-0.5 to 0.5))
1,CAAAAAAA (double strand) [8-mer CAAAAAAA],0.498
2,AGAAAAAA (double strand) [8-mer AGAAAAAA],0.498
3,TAAAAAAA (double strand) [8-mer TAAAAAAA],0.498
4,AAAAAAAG (double strand) [8-mer AAAAAAAG],0.498
5,ATAAAAAA (double strand) [8-mer ATAAAAAA],0.498
6,GAAAAAAA (double strand) [8-mer GAAAAAAA],0.498
7,AAAAAAAC (double strand) [8-mer AAAAAAAC],0.498
8,AAAAAAAT (double strand) [8-mer AAAAAAAT],0.498
9,AAAAAAAA (double strand) [8-mer AAAAAAAA],0.5

# Target: T2, T22C8.4 (T22C8.4) (Caenorhabditis elegans) (UniProt Q22677)
# T2 sequence: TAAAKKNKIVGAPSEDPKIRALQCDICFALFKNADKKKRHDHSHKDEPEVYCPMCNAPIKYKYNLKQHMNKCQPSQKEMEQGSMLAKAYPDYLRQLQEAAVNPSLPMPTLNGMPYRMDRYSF
row,Sequence,binding signal (PBM E-score (-0.5 to 0.5))
1,CCCTGCTA (double strand) [8-mer CCCTGCTA],0.486
2,ACCCTGCT (double strand) [8-mer ACCCTGCT],0.487
3,GCAGGGGA (double strand) [8-mer GCAGGGGA],0.495
4,CACCCTGC (double strand) [8-mer CACCCTGC],0.49

# Target: T3, Y53H1A.2 (Y53H1A.2) (Caenorhabditis elegans) (UniProt B1V8K4)
# T3 sequence: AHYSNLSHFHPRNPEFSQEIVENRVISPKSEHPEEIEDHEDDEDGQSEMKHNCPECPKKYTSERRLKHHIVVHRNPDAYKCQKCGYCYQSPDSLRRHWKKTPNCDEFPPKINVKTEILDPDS
row,Sequence,binding signal (PBM E-score (-0.5 to 0.5))
1,CGGTCGTC (double strand) [8-mer CGGTCGTC],0.483
2,CGGCCGCC (double strand) [8-mer CGGCCGCC],0.489
3,CCACCACC (double strand) [8-mer CCACCACC],0.486
4,CGGCCGGC (double strand) [8-mer CGGCCGGC],0.486
5,GGTGGGCA (double strand) [8-mer GGTGGGCA],0.487
6,CGGTGGGC (double strand) [8-mer CGGTGGGC],0.491
7,GGTCGGCA (double strand) [8-mer GGTCGGCA],0.481
8,CGGCGGCC (double strand) [8-mer CGGCGGCC],0.485
9,CGGTGGTC (double strand) [8-mer CGGTGGTC],0.481
10,ACCACCGC (double strand) [8-mer ACCACCGC],0.483
11,GCGGCCGC (double strand) [8-mer GCGGCCGC],0.488
12,CGGTCGGC (double strand) [8-mer CGGTCGGC],0.487
13,CGACCACC (double strand) [8-mer CGACCACC],0.486
14,CGGCCGAC (double strand) [8-mer CGGCCGAC],0.486

# Target: T4, egrh-3 (Y94H6A.11) (Caenorhabditis elegans) (UniProt U4PLQ8)
# T4 sequence: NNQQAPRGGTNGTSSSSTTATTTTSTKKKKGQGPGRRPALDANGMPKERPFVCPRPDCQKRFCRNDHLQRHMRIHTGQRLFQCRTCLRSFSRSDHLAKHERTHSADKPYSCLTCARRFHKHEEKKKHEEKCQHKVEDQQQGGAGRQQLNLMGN
row,Sequence,binding signal (PBM E-score (-0.5 to 0.5))
1,AGGGGGGG (double strand) [8-mer AGGGGGGG],0.498
2,CCTCCCCC (double strand) [8-mer CCTCCCCC],0.496
3,GCCCCCCC (double strand) [8-mer GCCCCCCC],0.496
4,CTCCCCCC (double strand) [8-mer CTCCCCCC],0.497
5,CCCCCCCA (double strand) [8-mer CCCCCCCA],0.496
6,GGGGGAGA (double strand) [8-mer GGGGGAGA],0.493

# Target: T5, lin-29 (W03C9.4) (Caenorhabditis elegans) (UniProt G5EGB2)
# T5 sequence: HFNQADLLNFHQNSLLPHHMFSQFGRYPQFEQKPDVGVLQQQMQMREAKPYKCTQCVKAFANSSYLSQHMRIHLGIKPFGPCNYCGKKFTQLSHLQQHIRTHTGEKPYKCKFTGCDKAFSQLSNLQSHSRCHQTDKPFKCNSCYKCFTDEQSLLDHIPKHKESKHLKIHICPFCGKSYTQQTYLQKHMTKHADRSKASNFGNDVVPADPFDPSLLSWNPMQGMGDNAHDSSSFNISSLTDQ
row,Sequence,binding signal (PBM E-score (-0.5 to 0.5))
1,GTTTTTTA (double strand) [8-mer GTTTTTTA],0.494
2,CAAAAAAA (double strand) [8-mer CAAAAAAA],0.496
3,AGAAAAAA (double strand) [8-mer AGAAAAAA],0.494
4,GCAAAAAA (double strand) [8-mer GCAAAAAA],0.494
5,TAAAAAAA (double strand) [8-mer TAAAAAAA],0.498
6,AAAAAACT (double strand) [8-mer AAAAAACT],0.495
7,GTAAAAAA (double strand) [8-mer GTAAAAAA],0.494
8,AAAAAAAG (double strand) [8-mer AAAAAAAG],0.495
9,ATAAAAAA (double strand) [8-mer ATAAAAAA],0.498
10,GAAAAAAA (double strand) [8-mer GAAAAAAA],0.495
11,CATAAAAA (double strand) [8-mer CATAAAAA],0.494
12,AAAAAAAC (double strand) [8-mer AAAAAAAC],0.497
13,TATAAAAA (double strand) [8-mer TATAAAAA],0.494
14,AAAAAAAT (double strand) [8-mer AAAAAAAT],0.496
15,AAAAAAAA (double strand) [8-mer AAAAAAAA],0.499

# Target: T6, ztf-19 (T27B1.2) (Caenorhabditis elegans) (UniProt Q22829)
# T6 sequence: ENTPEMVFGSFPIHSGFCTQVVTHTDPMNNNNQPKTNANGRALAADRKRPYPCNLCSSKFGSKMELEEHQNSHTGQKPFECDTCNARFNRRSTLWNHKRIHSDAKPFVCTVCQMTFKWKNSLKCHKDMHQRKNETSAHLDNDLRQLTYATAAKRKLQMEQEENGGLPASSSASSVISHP
row,Sequence,binding signal (PBM E-score (-0.5 to 0.5))
1,AGTGTAAT (double strand) [8-mer AGTGTAAT],0.497
2,ATTACACA (double strand) [8-mer ATTACACA],0.493
3,TAGTGTAA (double strand) [8-mer TAGTGTAA],0.495
4,CAGTGTAA (double strand) [8-mer CAGTGTAA],0.494
5,AGTGTAAC (double strand) [8-mer AGTGTAAC],0.491
6,ATTACAAC (double strand) [8-mer ATTACAAC],0.496
7,TGTGTAAA (double strand) [8-mer TGTGTAAA],0.491
8,AGTGTAAA (double strand) [8-mer AGTGTAAA],0.494
9,CGTTGTAA (double strand) [8-mer CGTTGTAA],0.493
10,GTGTAATA (double strand) [8-mer GTGTAATA],0.497
11,GTGTAACA (double strand) [8-mer GTGTAACA],0.494
12,CATTACAC (double strand) [8-mer CATTACAC],0.494
13,CTTTACAC (double strand) [8-mer CTTTACAC],0.494

# Target: T7, ztf-29 (Y66D12A.12) (Caenorhabditis elegans) (UniProt Q95Q03)
# T7 sequence: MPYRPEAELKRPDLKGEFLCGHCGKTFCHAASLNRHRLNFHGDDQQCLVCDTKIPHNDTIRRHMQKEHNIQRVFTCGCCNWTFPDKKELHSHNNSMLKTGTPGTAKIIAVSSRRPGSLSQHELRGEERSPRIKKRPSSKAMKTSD
row,Sequence,binding signal (PBM E-score (-0.5 to 0.5))
1,AAAAGCTT (double strand) [8-mer AAAAGCTT],0.492
2,AAGCTTGT (double strand) [8-mer AAGCTTGT],0.489

# Target: T8, ztf-6 (W06H12.1) (Caenorhabditis elegans) (UniProt G5EC77)
# T8 sequence: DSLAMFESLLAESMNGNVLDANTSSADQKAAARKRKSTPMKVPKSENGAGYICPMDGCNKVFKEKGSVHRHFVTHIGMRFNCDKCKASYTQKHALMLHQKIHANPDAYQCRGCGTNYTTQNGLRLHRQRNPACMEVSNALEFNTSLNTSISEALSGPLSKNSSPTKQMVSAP
row,Sequence,binding signal (PBM E-score (-0.5 to 0.5))
1,ATTTTCAG (double strand) [8-mer ATTTTCAG],0.493
2,AGCTGAAA (double strand) [8-mer AGCTGAAA],0.491
3,AATTTCAG (double strand) [8-mer AATTTCAG],0.493
4,ATTTCAGC (double strand) [8-mer ATTTCAGC],0.492
5,CGCTGAAA (double strand) [8-mer CGCTGAAA],0.49
6,GGCTGAAA (double strand) [8-mer GGCTGAAA],0.491
7,ATCTGAAA (double strand) [8-mer ATCTGAAA],0.492
8,GTCTGAAA (double strand) [8-mer GTCTGAAA],0.495
9,ATTTCAGA (double strand) [8-mer ATTTCAGA],0.491
10,TGCTGAAA (double strand) [8-mer TGCTGAAA],0.494
11,AGTTTCAG (double strand) [8-mer AGTTTCAG],0.496
12,GCTGAAAA (double strand) [8-mer GCTGAAAA],0.492
13,GTTTCAGA (double strand) [8-mer GTTTCAGA],0.494
14,TCTGAAAA (double strand) [8-mer TCTGAAAA],0.492
15,GCTGAAAC (double strand) [8-mer GCTGAAAC],0.495
